Results published in patent US20200369752A1 (published 2020).

B1: Syn7031.50.32 (antibody, V domains shown)
VH: EVQLVETGGGLVQPKGSLKLSCAASGFTFNTNAMNWVRQAPGKGLEWVVRIRTKSNNYATYYADSVKDRFTISRDDSQSMLYLQMNNLKTEDTAMYYCVRGGTGTGAMDYWGQGTSVTVSS
VL: DVVMTQTPLSLPVSLGDQASISCRSSQSLVHSNGNTYLHWCLQKPGQSPKLLIYKVSNRFSGVPDRFSGSGSGTDFTLKISRVEAEDLGVYFCSQSTHVPLTFGAGTKLELK
B2: Syn7009.32.40 (antibody, V domains shown)
VH: B1 VH
VL: B1 VL
B3: Syn7012.15.32 (antibody, V domains shown)
VH: B1 VH
VL: NIMMTQSPSSLAVSAGEKVTMSCKSSQSVLYSSNQKNYLAWYQQKPGQSPKLLIYWASTRESGVPDRFTGSGSGTDFTLTISSVQAEDLAVYYCHQYLSSYTFGGGTKLEIK

molecular target: human monomeric α-Synuclein (UniProt P37840 1-140); assay: sandwich ELISA

EC50	Binder
567 nM	B1
947 nM	B2
555 nM	B3

molecular target: human fibrillar (PFF) α-Synuclein (UniProt P37840 1-140); assay: sandwich ELISA

EC50	Binder
8.86 nM	B1
10.1 nM	B2
10.6 nM	B3
